Laboratory results from the supplement of paper PMC10567573.

B1: TRIM9 (parent)
chain: PRNSCITCPQCHRSLILDDRGLRG

Variants of: B1
Experiment: protein stability index of a GFP-peptide fusion (GPS, HEK-293T) (PSI 1-6); higher = more stable
Conditions: c terminus: a fixed tail appended
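Further: lentivirally expressed fusions sorted by FACS into six bins by GFP to DsRed ratio, PSI derived from sequencing read proportions per bin multiplied by bin number.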

Protein stability index: each site, then its substitutions
G24: I 2.03, Y 1.84, N 1.86, K 1.71, T 2.23, S 2.35, E 2.6, H 3.02
L17: K 2.1, F 2.44, T 2.08, Y 2.11, G 2.08, P 2.4, E 2.2, S 2.15
D18: W 1.68, H 2.03, I 1.53, M 2.57, A 2.31, P 1.49, L 1.53, G 2.36, S 2.3
I16: Q 2.69, V 2.28, N 2.49, G 1.76, C 2.32, F 1.69
Q10: S 2.46, N 2.47, E 1.53, K 2.25, V 2.29, M 2.04, P 2.02, G 4.38, H 2.62
R23: C 2.6, W 1.25, T 3, D 2.96, Y 1.63, M 1.67, E 3.21, V 1.93, N 2.56, K 2.2
R20: L 1.93, N 2.05, I 1.85, C 2.39, E 2.7, V 1.82, T 3.07, Q 2.04, P 2.6
P1: C 2.61, H 2.47, E 3.1, Y 2.04, R 2.28
H12: I 1.85, L 3.13, N 2.16, T 1.38, G 2.68
T7: L 1.99, I 2.16, K 2.25, P 1.72, R 1.98, E 1.99, S 2.48, Q 2.38, N 2.04, A 2.42
C8: V 2.47, H 2.29, L 2.35, N 2.6, F 1.57, S 3.15, Q 2.16
C11: M 1.97, Y 2.11, L 1.83, E 2.86, G 3.01, P 2.47, D 2.92
R13: M 1.77, I 1.95, T 3.47, K 1.95, G 2.37, V 2.2, C 4.16
D19: Q 2.77, G 1.58, P 1.81, A 2.46, K 2.05, C 2.6
C5: I 2.34, P 2.49, V 2.8, R 3.09, Q 1.92
S4: M 2.89, Q 1.85, Y 2.17, P 2.1, N 1.8
R2: M 2.16, G 2.82, I 2.64, T 2.56, P 2.92, W 2.14, S 1.94
S14: Y 2.66, I 2.93, L 2.11, F 1.91, E 2.6, Q 2, V 3.13
I6: L 2.26, F 1.66, E 2.02, Y 2.72, T 1.89
G21: Q 2.01, M 2.8, K 2.52, H 2.11
P9: T 1.83, R 2.58, M 1.45, D 2.05, L 2.12, C 2.45, G 1.72, H 1.51, K 2.18
N3: D 2.34, M 1.6, G 1.52, W 1.62, E 2.16, S 2.5, H 2.53, R 2.03
L22: P 3.51, K 2.46, E 2.21, D 3.81, M 2.69
L15: V 2.24, C 1.95, F 3.08, M 2.61, R 2.13, K 2.12
